These results are taken from patent US11779606B2, “Peptides and combination of peptides of non-canonical origin for use in immunotherapy against different types of cancers” (Immatics Biotechnologies GmbH, priority 2018, dated 2023).

This assay addresses HLA-A*02:01 (Homo sapiens, UniProt P04439, D140Y/D185E/D98H/E176V/E277Q/G131W/G231S/I119V/I121R/I166T/I218V/L300P/L318F/N151K/N90K/P208A/P217A/Q86G/Q94H/R138H/R169H/T345S). Kind of assay: MHC binding assay (UV-ligand exchange, β2m ELISA). The settings on record: MHC class I binding score; peptide exchange yield, binding to HLA-A*02:01, UV-ligand exchange with β2m ELISA. The text has this: Candidate peptides for T cell based therapies according to the present invention were further tested for their MHC binding capacity (affinity).
The individual peptide-MHC complexes were produced by UV-ligand exchange, where a UV-sensitive peptide is cleaved upon UV-irradiation and exchanged with the peptide of interest as analyzed. Only peptide candidates that can effectively bind and stabilize the peptide-receptive MHC molecules prevent dissociation of the MHC complexes. To determine the yield of the exchange reaction, an ELISA was performed based on the detection of the light chain (β2m) of stabilized MHC complexes. The assay was performed as generally described in Rodenko et al. (Rodenko et al., 2006).
96 well MAXISorp plates (NUNC) were coated over night with 2 ug/ml streptavidin in PBS at room temperature, washed 4× and blocked for 1h at 37° C. in 2% BSA containing blocking buffer. Refolded HLA-A*02:01/MLA-001 monomers served as standards, covering the range of 15-500 ng/ml. Peptide-MHC monomers of the UV-exchange reaction were diluted 100 fold in blocking buffer. Samples were incubated for 1 h at 37° C., washed four times, incubated with 2 ug/ml HRP conjugated anti-β2m for 1h at 37° C., washed again and detected with TMB solution that is stopped with […]. Absorption was measured at 450 nm. Candidate peptides that show a high exchange yield (preferably higher than 50%, most preferred higher than 75%) are generally preferred for a generation and production of antibodies or fragments thereof, and/or T cell receptors or fragments thereof, as they show sufficient avidity to the MHC molecules and prevent dissociation of the MHC complexes.
As to “5 (LVWEVVESV; listed as Homo sapiens) [compound 5]”, the Peptide exchange result is “++++ (≥75% = ++++)”.

As to “8 (ILQSLVPAA; listed as Homo sapiens) [compound 8]”, the Peptide exchange result is on record as “++++ (≥75% = ++++)”. Turning to “9 (FLQEGDLISV; listed as Homo sapiens) [compound 9]”, the Peptide exchange entry was “++++ (≥75% = ++++)”. In the case of “10 (SLLDKLSGI; listed as Homo sapiens) [compound 10]”, the Peptide exchange entry is recorded as “++++ (≥75% = ++++)”. As for “11 (ALLPHAPEAV; listed as Homo sapiens) [compound 11]”, the Peptide exchange entry is reported as “+++ (≥50 = +++)”. In the case of “12 (HLDSMNVSI; listed as Homo sapiens) [compound 12]”, the Peptide exchange entry was “++++ (≥75% = ++++)”. The entry for “14 (LLIEVSEEL; listed as Homo sapiens) [compound 14]” is “++++ (≥75% = ++++)”. As to “15 (NLVMPLLHI; listed as Homo sapiens) [compound 15]”, the Peptide exchange entry is reported as “++ (≥20% = ++)”. The entry for “16 (ALLDAEQSPVAL; listed as Homo sapiens) [compound 16]” is “++++ (≥75% = ++++)”. For “17 (VLWDLRPSSLI; listed as Homo sapiens) [compound 17]” the value was “++++ (≥75% = ++++)”; for “20 (VLISLPGKV; listed as Homo sapiens) [compound 20]”, “++ (≥20% = ++)”.

Turning to “21 (FVFISPSFL; listed as Homo sapiens) [compound 21]”, the Peptide exchange entry was “+++ (≥50 = +++)”. The entry for “22 (SLYDVPVGA; listed as Homo sapiens) [compound 22]” is “++++ (≥75% = ++++)”. For “23 (GLEVLDALL; listed as Homo sapiens) [compound 23]” the value was “++ (≥20% = ++)”; for “24 (TLTSLNILL; listed as Homo sapiens) [compound 24]”, “++++ (≥75% = ++++)”; for “25 (ISVLNLSAI; listed as Homo sapiens) [compound 25]”, “++ (≥20% = ++)”. The entry for “27 (IAAGVPNTDA; listed as Homo sapiens) [compound 27]” is “++ (≥20% = ++)”.

Consider “28 (SQLEKPETA; listed as Homo sapiens) [compound 28]”, for which the Peptide exchange entry was “+++ (≥50 = +++)”. “30 (LLRLTLLPL; listed as Homo sapiens) [compound 30]”: the Peptide exchange result is given as “++ (≥20% = ++)”. The entry for “32 (VLSVSAVLGA; listed as Homo sapiens) [compound 32]” is “+++ (≥50 = +++)”; for “34 (LLNVEPAGA; listed as Homo sapiens) [compound 34]” it is “++++ (≥75% = ++++)”. On to “35 (VLLNSNYPV; listed as Homo sapiens) [compound 35]”, for which the Peptide exchange entry is reported as “++++ (≥75% = ++++)”. For “39 (YIYEDEVRL; listed as Homo sapiens) [compound 39]” the value was “++++ (≥75% = ++++)”.

For “41 (LMASEGIWESSL; listed as Homo sapiens) [compound 41]”, the Peptide exchange result was “+++ (≥50 = +++)”. For “42 (WITPVIPAL; listed as Homo sapiens) [compound 42]” the value was “++++ (≥75% = ++++)”; for “43 (AIWSTILIA; listed as Homo sapiens) [compound 43]”, “++ (≥20% = ++)”; for “44 (WLIPRQLAAA; listed as Homo sapiens) [compound 44]”, “++++ (≥75% = ++++)”. Consider “45 (ALYHQSPLL; listed as Homo sapiens) [compound 45]”, for which the Peptide exchange entry is “++++ (≥75% = ++++)”.

“52 (LAFVSHVLI; listed as Homo sapiens) [compound 52]”: the Peptide exchange result was “++ (≥20% = ++)”. The entry for “53 (TISISLSSV; listed as Homo sapiens) [compound 53]” is “++++ (≥75% = ++++)”; for “54 (GLSPDQVFL; listed as Homo sapiens) [compound 54]” it is “++++ (≥75% = ++++)”. The entry for “55 (MVQQEKLFV; listed as Homo sapiens) [compound 55]” is “+++ (≥50 = +++)”; for “56 (IITNLIVNI; listed as Homo sapiens) [compound 56]” it is “+++ (≥50 = +++)”; for “57 (YVLMTSLLL; listed as Homo sapiens) [compound 57]” it is “++++ (≥75% = ++++)”. Regarding “58 (MIISHRALEL; listed as Homo sapiens) [compound 58]”, the Peptide exchange entry was “++ (≥20% = ++)”. Take “59 (LAASTTFLGV; listed as Homo sapiens) [compound 59]”: the Peptide exchange result is “++++ (≥75% = ++++)”. For “60 (LLLATLENL; listed as Homo sapiens) [compound 60]” the value was “++++ (≥75% = ++++)”. The entry for “61 (VLPWQPLLL; listed as Homo sapiens) [compound 61]” is “++ (≥20% = ++)”. Take “62 (SLLGKPGLTI; listed as Homo sapiens) [compound 62]”: the Peptide exchange entry was “++++ (≥75% = ++++)”.

As to “63 (LSFKRSLSI; listed as Homo sapiens) [compound 63]”, the Peptide exchange entry was “++ (≥20% = ++)”. As to “64 (LLLALRLSL; listed as Homo sapiens) [compound 64]”, the Peptide exchange result is recorded as “+ (≥10% = +)”. “66 (ILNELLNSI; listed as Homo sapiens) [compound 66]”: the Peptide exchange result is given as “++++ (≥75% = ++++)”. For “67 (ALKELMGPA; listed as Homo sapiens) [compound 67]” the value was “++ (≥20% = ++)”. As for “69 (LLCPVVLQL; listed as Homo sapiens) [compound 69]”, the Peptide exchange entry was “++++ (≥75% = ++++)”.

“70 (LLLQIEPAA; listed as Homo sapiens) [compound 70]”: the Peptide exchange result is listed as “++++ (≥75% = ++++)”.

For the substance “71 (WLMPVMPAL; listed as Homo sapiens) [compound 71]”, the Peptide exchange result is recorded as “++++ (≥75% = ++++)”. With “73 (STTIINLIL; listed as Homo sapiens) [compound 73]”, the Peptide exchange entry is listed as “++ (≥20% = ++)”. For “97 (GLIDDKGTIKL; listed as Homo sapiens) [compound 97]” the value was “++++ (≥75% = ++++)”; for “98 (SLMEVTHDL; listed as Homo sapiens) [compound 98]”, “++++ (≥75% = ++++)”; for “99 (ALMDGSESRFFV; listed as Homo sapiens) [compound 99]”, “++++ (≥75% = ++++)”. For “100 (SLGPPPVGV; listed as Homo sapiens) [compound 100]” the value was “++++ (≥75% = ++++)”.
